Measured values taken from a protein production outcome set (Wang et al. 2014).

test: label from the status in PepcDB records

Protein production, failed:
MLLEDRILKKWLLPFILSVLIAVDSMAQCIPVYKDSSMSVERRVTDLLGRMTLREKIAQLSHLHGYQLYNGQEVDYQKLRDAAGDISYGCIEGFNLTGENVRKAFHAIQKYMVEETRLGIPVFTVTESLHGSVHDGSTIFPQSVAVGSTFNLDLAYQMTKAIATELRSQGVIQTLSPGLDVVRDLRWGRVEESFGEDPWLVGQMGIAQVKGYIDGGISPMLKPFGPGGAPLGGLNLASVESGERDIRNIHIKPYEMAVRNTEVKAVMTSYNSWNGIPNSASSYLLTNILRNEWGFKGYVYSDWGAVAMLKDFQHTAKDDSEAAIQALTAGVDLEASSNCYWALEQLIEQGRFDEKYVDLAVGRILRVKFELGLFENPYQGADMPGVAMRTKEAVELSRRVADESIVLLKNENTLLPLNLNKIKSLAVIGPNANQVQFGDYTWSRSNKDGVTPLEGLKKRVGNKIKINYAAGCDLITDNKSGFDEAVAAVKASDMAVVFVGSSSASLARDYSDATCGEGFDLSSLDLTGVQEELVEEIYAIGKPVIVVLVTGKPFSISWIKEHIPAIVVQWYGGEKAGDAIADMLLGNINPSAKLPFSFPQSVGHLPVFYNHLPTDKGFYRRPGRPNEPGRDYVFSSPAPLWSFGHGLSYTTFEYLNAHYSAELLHPSDTLIVSVSLKNTGSVAGKEVVQLYVRDVVSSVVTPVKQLKAFSKPFLQPGEMQTVVLKLPIQELALYDLSMKKVVEEGEYEIQIGTASDDIRLRRTIFVGRQPVTSNSLGHNDFCMDEIVKNPGRKIKVAGCVRDVQATPISGIEIKSNYSGRTVISKEGGRYSILTVENDVLTVSAKGFETVNIKVNKQKDIDIKLNYSHD
MLLKRSLPKMRWKSWVKPWQQLDWPLFCLPVGVSIFGGLMILSTELKQPVTDWWWHWLIAGIGVFIALFLARCRYDNLLQWHWITYVLTNISLITVMAAGTSAKGAQRWLTIGGFNVQPSEFAKIGVIITLAALLHKHTATRIEDVFRALAITAIPWLLVFVQPDLATSLVFGAIVLGMLYWANANPGWLLLMISPIIAAILFTMSWPLSTPIILFKEIFITPFGVAWAIGMAILGWLTLPWRRFNMGTIGAFSLNLLGGELGIFAWNHVLKEYQKNRLTAFINPEQDPLGSGYHLIQSRIAIGAGEMWGWGLFKGPMTQLNFVPEQHTDFIFSAIGEEFGLFGCLIVLFVFCLICWRLLHVAQTAKDNFGSLLAIGVLSMIIFQLVVNVGMNVGLAPVAGIPLPWMSYGRSAMLTNFIALGIVESVANFRQRQKYYF
MLLLWLVVLVIGAAYLTHRRLAPLQILGIVAAYVLLMGIFSSAPGWLLALIWVVLALKIALVALPQWRRKLFTAPVFRWFQRTLPPMSQTEREAIDAGTVWWDGELFSGRPDWRTLLAYPAPKLTEEEQAFIDGPTEALCAMVSDWQIGQDLDLPPEAWAHIKQHGFFALIIPKEYGGKGFSAYAHSQVAMKLATRSGDLASTVMVPNSLGPAELLLHYGTDEQRNRYLPRLARGEEIPCFALTGPLAGSDAGAMPDTGIICKGQWQGEEVIGLRLNWEKRYITLGPVATLLGLAFKAYDPDHLLGEQEELGISLALIPTDTPGVEIGKRHLPLGAAFMNGPNSGKDVFVPLDFLIGGQAMLGKGWMMLMNCLSVGRSISLPAVGTGAAKYTSLVTGQYANIREQFNVPLAAFEGIQESLARIGGNAWLMDSARLLTAKAVDLGEKPSVLSAILKYHLTERGRECIQHAMDVHGGKGIIMGPNNYLGRNWQGAPIFITVEGANILSRNLMIFGQGAIRCHPFVLKEMALAGREDHDQALKEFDDLLMKHILFAAGNAASTLVYGLGLGRFERVPGDALSQGYFRALNRQAAAFAMMADLSMMLLGGALKRRERLSARLGDVLSYLYLASAALKRYHDQGSPEYLQPLLRWAMEESLGQTERALDRLLDNFPNRFVGCALRVLVFPFGRRHKGPGDELDAEVAELIGRRKGDPALEELLAGCYRPQAEHDPVADLQRASDLLEDTAQLSKALYQAVKEGKVQPAPGQSGIDAAVKAGVLQPDDGQRLHEAEQARRKVIDVDAFDKAQLLAVPGKVR
MLLNKYFLANRNINFIVMALLFSSSYISASSFISGPSAVYKYGLSFILLATIQIPTTLIVFIIVGQRLNRESKKINAINIIDYIRHRYESDFLALMSGFVLIFFSMFLISAQLIGGAKLIEVFWGIDYVVGLTFFAFLVFIYVFFGGFKAVAYTDLIQGFLMLVSSVILFSKMLDLGGGINNLFKTATSSLDKSLLLPSNADLKPQYIISFWILIGIGILGQPQIINNFIAFKDENAIKFSLPISTFIISFLIVLMHLIGFFAIILFPDLSPNDKVVLNVALKVLNPFSCFMFFIGLLSAIMSTVDSNLLLITSVLIKSIFIYKEDLKEDVKIGRIIMISNIFFILIILIFSLFPPNFLFFINIFAFGALEVSFFPIIVFGLYLNFVSKIAAFASMFLGLIFYLSILFFGLNIWFFHPVFPSFFVSIFTFLVVNFFCKKNSKVC
MLLRKGTVYVLVIRADLVNAMVAHARRDHPDEACGVLAGPEGSDRPERHIPMTNAERSPTFYRLDSGEQLKVWRAMEDADEVPVVIYHSHTATEAYPSRTDVKLATEPDAHYVLVSTRDPHRHELRSYRIVDGAVTEEPVNVVEQYLEHHHHHH
MLLSMLRFEWRYYLRQPSFYVVSFLLFLMSFLSVASNNIQIGSGGEVMKNSPFSISQTLLIMGLISMFAVVNFVGSTAIRNHQHLMEELVYSKPLSPFAYQFGRFLGSFMVVLAVFAFVPIGLMLGSFMPWVDASRFGPFALSHYVIPYLQLSVPSLLLISCLFYAMASRFRSLMALYLTAVAMLVLYTLTGEMASQPQYRTIAALLDPFALRTFAEVTRYWTISEKNHQLLELSGLVLQNRALWLVIAGVLLAMSGIFSQPTLTKKRDKKSSKVEKIPDLVPLTALAMATLPNGRLQFWTRVKFEVRQVLLTAPFVVLGALTVFNLVGPMFDDFGWYGTSNWPLTQDMVDNIAGATGLLMVIVLIYYSAEIVWRERSSGMGDIVDSVPVSNLSFWASKLVAVLIVMTLLYMLAMGTTIVFQLIKGQSNLEISQYLIRLGFYYLLPLLMTSVLAFFLQVLSPNKYAGMGLFVAYYLTTFVMANWGFGHSLYNFGQSPSVSYSDMNGYGWGLLSHSLYMIYWGAFSVMLFVLGYGLYHRGPQQSLKTRLGLLGYQLGHNGKVIIAAALVIFVGSGSYLFYQTKVVNHYLTQEETTDLQADYEKTFKQYQGMPILVTTRVNANVDIFPEQRKIAAKVMFEWQNKSDKPIEKMLVQFPEHTQAETVKINIPNTHLGEFDRRYRNAWLTFSTPVQPGQLVVGNIELVRESTGVAESGFDLSVVENGTFINNFELLPLFGYQDGYELMDRHERQKRGLAEKNRANKLEDSRFYQQNFFGVDGDFIQFEATISTSMDQIALAPGYLQKQWQQDDRQYFHYLMDSPMVNFYAIISGRYQVEKIEHHGVAVEVYYHADHSWNVTRMVESVKDSIDYYTAAFGPYQHKQMRIMEFPGYRSFAQSFANTVPYSERIGFITDLRNEDNIDPVYYVTAHEVAHQWWGHQVGAADVQGSAVISESLSQYSALMVLEHKYGDKMIRKFLKYELDRYLRGRSAESIKEQPLLRSENQQYIHYQKGSVVMMAIKDVLGEAKLNANLKAFLTRYQYRNDPFPTTLDLVSYLKQGTDEVQSRFIDESFNDITLYDLRLTNAVAKTLPDGKTQLELTIYASRKVATGKGEEAEQPLDMSIDIGAFSADPDKLKDEKQILLLEKHHLVSGENKLTITLAEKPSYVGVDPFVKLIDRDARDNIFKL
MLLVGVAIAFLHKYIVLVVLTSILITACQGDIIDNPNLESNVPQSTDCRVVEHAVGKTKICGKPKKIAVLEPKMLSLMLALDVQPAAYADAYLVNAPQFDNPSQQIPYLGKYVTSQPINLGDRSSPSLEALTLLKPDLILGLNYQDNQLFSAIAPTVFIDNEQNWQESIKIVAKALDSQKNIPSIITSQQQQLAKVRAQLESLVSTHPRVLNIVCSQLMDYIEVTYNGNTIEILEKIGFQPVFLPDIERKPGLRPQITLETLAQLDADIVIVNTWVDNWNGKSTYTVPLKELKQKWAKNPLLHNSQAWKEGRVYFVDYTLWGNVIGAPIANALILEQLPSLLLSNTLKP
MLMNNRVNNMMRTYKFRIYISKSIQETIEEHLNICRYLYNYLLEQKTKNPKLNKGDTQKLITEHKKENPELKKVHSKALQMVNNKLWGNLKALGKLKQNGHKVGKLRFKSSKNHYKTIEYNQSGFKIKDNKLYLSKIGEISIKLHRKIKGEIKGVIIKKELTNKWFAFFQVEEEPKPLPKTNKVVGIDLGIDGYTIDSDGNKFENPKFIDETLDKIKKVQKNLSRKVRGSNNYKKTKLKLIKVYDKLNNQKNDFLHKLSRYYINNYDKIVLEDLNIKSMVENKKGQKTLNRHILDGSWKKFINLLLYKAEGAGREVILINPAYTSKKCFNCGCVVSSLRLSDRIFFCPNCGWKIDRDYNASLNILKSGLGESVVPAEGRPLLRVIPYIKVISGQVSPMNQEALPEGRGLRKPKGFRSTPSVREG
